Assay results taken from the Human Domainome abundance scans (Beltran et al. 2025).
± gives the uncertainty stated by the source.

B1: Ankyrin repeat and SAM domain-containing protein 6, residues 774 to 836; numbered along this chain, Q68DC2 (parent)
chain: DEDELTGILKKLSLEKYQPIFEEQEVDMEAFLTLTDGDLKELGIKTDGSRQQILAAISELNAG

Variants of: B1
Test: abundance fitness (aPCA) (normalised: wild type 0, dead -1); higher = more abundant; growth selection in yeast, the domain comes from the species named
Conditions: Homo sapiens

| Variant | abundance fitness |
| --- | --- |
| DEDELTGILKKLSLEKYQPIFEEQEVDMEHFLTLTDGDLKELGIKTDGSRQQILAAISELNAG [A30H] | 0.037 ± 0.06 |
| DEDELTGILKKLSLEKYQPIFEEQEVDMEWFLTLTDGDLKELGIKTDGSRQQILAAISELNAG [A30W] | -0.464 ± 0.06 |
| DEDELTGILKKLSLEKYQPIFEEQEVDMEFFLTLTDGDLKELGIKTDGSRQQILAAISELNAG [A30F] | -0.246 ± 0.072 |
| DEDELTGILKKLSLEKYQPIFEEQEVDMENFLTLTDGDLKELGIKTDGSRQQILAAISELNAG [A30N] | -0.049 ± 0.068 |
| DEDELTGILKKLSLEKYQPIFEEQEVDMETFLTLTDGDLKELGIKTDGSRQQILAAISELNAG [A30T] | -0.125 ± 0.055 |
| DEDELTGILKKLSLEKYQPIFEEQEVDMEPFLTLTDGDLKELGIKTDGSRQQILAAISELNAG [A30P] | -0.784 ± 0.088 |
| DEDELTGILKKLSLEKYQPIFEEQEVDMEKFLTLTDGDLKELGIKTDGSRQQILAAISELNAG [A30K] | 0.001 ± 0.065 |
| DEDELTGILKKLSLEKYQPIFEEQEVDMECFLTLTDGDLKELGIKTDGSRQQILAAISELNAG [A30C] | -0.02 ± 0.084 |
| DEDELTGILKKLSLEKYQPIFEEQEVDMELFLTLTDGDLKELGIKTDGSRQQILAAISELNAG [A30L] | -0.089 ± 0.048 |
| DEDELTGILKKLSLEKYQPIFEEQEVDMERFLTLTDGDLKELGIKTDGSRQQILAAISELNAG [A30R] | 0.096 ± 0.035 |
| DEDELTGILKKLSLEKYQPIFEEQEVDMEYFLTLTDGDLKELGIKTDGSRQQILAAISELNAG [A30Y] | -0.218 ± 0.074 |
| DEDELTGILKKLSLEKYQPIFEEQEVDMEIFLTLTDGDLKELGIKTDGSRQQILAAISELNAG [A30I] | -0.164 ± 0.081 |
| DEDELTGILKKLSLEKYQPIFEEQEVDMESFLTLTDGDLKELGIKTDGSRQQILAAISELNAG [A30S] | -0.015 ± 0.044 |
| DEDELTGILKKLSLEKYQPIFEEQEVDMEEFLTLTDGDLKELGIKTDGSRQQILAAISELNAG [A30E] | -0.073 ± 0.062 |
| DEDELTGILKKLSLEKYQPIFEEQEVDMEMFLTLTDGDLKELGIKTDGSRQQILAAISELNAG [A30M] | -0.075 ± 0.06 |
| DEDELTGILKKLSLEKYQPIFEEQEVDMEDFLTLTDGDLKELGIKTDGSRQQILAAISELNAG [A30D] | -0.273 ± 0.063 |
| DEDELTGILKKLSLEKYQPIFEEQEVDMEVFLTLTDGDLKELGIKTDGSRQQILAAISELNAG [A30V] | -0.093 ± 0.047 |
| DEDELTGILKKLSLEKYQPIFEEQEVDMEAVLTLTDGDLKELGIKTDGSRQQILAAISELNAG [F31V] | -0.342 ± 0.05 |
| DEDELTGILKKLSLEKYQPIFEEQEVDMEAMLTLTDGDLKELGIKTDGSRQQILAAISELNAG [F31M] | -0.329 ± 0.07 |
| DEDELTGILKKLSLEKYQPIFEEQEVDMEANLTLTDGDLKELGIKTDGSRQQILAAISELNAG [F31N] | -0.441 ± 0.07 |
| DEDELTGILKKLSLEKYQPIFEEQEVDMEAHLTLTDGDLKELGIKTDGSRQQILAAISELNAG [F31H] | -0.586 ± 0.088 |

| Variant | abundance fitness |
| --- | --- |
| DEDELTGILKKLSLEKYQPIFEEQEVDMEAILTLTDGDLKELGIKTDGSRQQILAAISELNAG [F31I] | -0.343 ± 0.058 |
| DEDELTGILKKLSLEKYQPIFEEQEVDMEAYLTLTDGDLKELGIKTDGSRQQILAAISELNAG [F31Y] | -0.563 ± 0.068 |
| DEDELTGILKKLSLEKYQPIFEEQEVDMEAGLTLTDGDLKELGIKTDGSRQQILAAISELNAG [F31G] | -0.443 ± 0.044 |
| DEDELTGILKKLSLEKYQPIFEEQEVDMEAWLTLTDGDLKELGIKTDGSRQQILAAISELNAG [F31W] | -0.432 ± 0.066 |
| DEDELTGILKKLSLEKYQPIFEEQEVDMEALLTLTDGDLKELGIKTDGSRQQILAAISELNAG [F31L] | -0.305 ± 0.063 |
| DEDELTGILKKLSLEKYQPIFEEQEVDMEADLTLTDGDLKELGIKTDGSRQQILAAISELNAG [F31D] | -0.51 ± 0.056 |
| DEDELTGILKKLSLEKYQPIFEEQEVDMEAPLTLTDGDLKELGIKTDGSRQQILAAISELNAG [F31P] | -0.469 ± 0.07 |
| DEDELTGILKKLSLEKYQPIFEEQEVDMEAELTLTDGDLKELGIKTDGSRQQILAAISELNAG [F31E] | -0.384 ± 0.062 |
| DEDELTGILKKLSLEKYQPIFEEQEVDMEARLTLTDGDLKELGIKTDGSRQQILAAISELNAG [F31R] | -0.426 ± 0.047 |
| DEDELTGILKKLSLEKYQPIFEEQEVDMEACLTLTDGDLKELGIKTDGSRQQILAAISELNAG [F31C] | -0.797 ± 0.11 |
| DEDELTGILKKLSLEKYQPIFEEQEVDMEAKLTLTDGDLKELGIKTDGSRQQILAAISELNAG [F31K] | -0.362 ± 0.064 |
| DEDELTGILKKLSLEKYQPIFEEQEVDMEATLTLTDGDLKELGIKTDGSRQQILAAISELNAG [F31T] | -0.638 ± 0.058 |
| DEDELTGILKKLSLEKYQPIFEEQEVDMEAALTLTDGDLKELGIKTDGSRQQILAAISELNAG [F31A] | -0.37 ± 0.05 |
| DEDELTGILKKLSLEKYQPIFEEQEVDMEASLTLTDGDLKELGIKTDGSRQQILAAISELNAG [F31S] | -0.513 ± 0.056 |
| DEDELTGILKKLSLEKYQPIFEEQEVDMEAFLTDTDGDLKELGIKTDGSRQQILAAISELNAG [L34D] | -0.654 ± 0.12 |
| DEDELTGILKKLSLEKYQPIFEEQEVDMEAFLTATDGDLKELGIKTDGSRQQILAAISELNAG [L34A] | -0.403 ± 0.06 |
| DEDELTGILKKLSLEKYQPIFEEQEVDMEAFLTETDGDLKELGIKTDGSRQQILAAISELNAG [L34E] | -0.526 ± 0.071 |
| DEDELTGILKKLSLEKYQPIFEEQEVDMEAFLTCTDGDLKELGIKTDGSRQQILAAISELNAG [L34C] | -0.459 ± 0.079 |
| DEDELTGILKKLSLEKYQPIFEEQEVDMEAFLTFTDGDLKELGIKTDGSRQQILAAISELNAG [L34F] | -0.298 ± 0.14 |
| DEDELTGILKKLSLEKYQPIFEEQEVDMHAFLTLTDGDLKELGIKTDGSRQQILAAISELNAG [E29H] | -0.356 ± 0.13 |
| DEDELTGILKKLSLEKYQPIFEEQEVDMKAFLTLTDGDLKELGIKTDGSRQQILAAISELNAG [E29K] | 0.099 ± 0.039 |
